Test results reported in paper PMC6910828 (2019).

Columns and labels:
[1] = biological target: Cy3-labelled, prenylated Rho Q63L, GTP-bound (Cy3 at the N-terminus (Cy3 N-t labeled LPETGG peptide joined by sortase); geranylgeranyl by in vitro prenylation (C-terminal prenyl moiety); GTP-bound); experiment: GTP-bound; extraction from supported lipid bilayers
[2] = biological target: Cy3-labelled, prenylated Cdc42 Q61L, GTP-bound (Cy3 at the N-terminus (Cy3 N-t labeled LPETGG peptide joined by sortase); geranylgeranyl by in vitro prenylation (C-terminal prenyl moiety); GTP-bound); experiment: as above
[3] = biological target: Cy3-labelled, prenylated Rho G14V, GTPγS-bound (Cy3 at the N-terminus (Cy3 N-t labeled LPETGG peptide joined by sortase); geranylgeranyl by in vitro prenylation (C-terminal prenyl moiety); GTPγS-bound); experiment: GTPγS-bound; extraction from supported lipid bilayers
[4] = biological target: Cy3-labelled, prenylated Cdc42 G12V, GTPγS-bound (Cy3 at the N-terminus (Cy3 N-t labeled LPETGG peptide joined by sortase); geranylgeranyl by in vitro prenylation (C-terminal prenyl moiety); GTPγS-bound); experiment: as above
[5] = biological target: Cy3-labelled, prenylated Cdc42, wild type, GDP-bound (Cy3 at the N-terminus (Cy3 N-t labeled LPETGG peptide joined by sortase); geranylgeranyl by in vitro prenylation (C-terminal prenyl moiety); GDP-bound); experiment: GDP-bound; extraction from supported lipid bilayers
[6] = biological target: Cy3-labelled, prenylated Rho, wild type, GDP-bound (Cy3 at the N-terminus (Cy3 N-t labeled LPETGG peptide joined by sortase); geranylgeranyl by in vitro prenylation (C-terminal prenyl moiety); GDP-bound); experiment: as above
Sequence of Cy3-labelled, prenylated Rho, wild type, GDP-bound (Cy3 at the N-terminus (Cy3 N-t labeled LPETGG peptide joined by sortase); geranylgeranyl by in vitro prenylation (C-terminal prenyl moiety); GDP-bound) (chain, as listed by the source): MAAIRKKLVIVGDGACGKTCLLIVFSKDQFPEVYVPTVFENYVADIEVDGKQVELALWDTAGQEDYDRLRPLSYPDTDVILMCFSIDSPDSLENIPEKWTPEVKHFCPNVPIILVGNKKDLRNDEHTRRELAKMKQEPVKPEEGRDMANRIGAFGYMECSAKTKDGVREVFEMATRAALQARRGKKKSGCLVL

Sequence of Cy3-labelled, prenylated Cdc42, wild type, GDP-bound (Cy3 at the N-terminus (Cy3 N-t labeled LPETGG peptide joined by sortase); geranylgeranyl by in vitro prenylation (C-terminal prenyl moiety); GDP-bound) (P60953 whole entry): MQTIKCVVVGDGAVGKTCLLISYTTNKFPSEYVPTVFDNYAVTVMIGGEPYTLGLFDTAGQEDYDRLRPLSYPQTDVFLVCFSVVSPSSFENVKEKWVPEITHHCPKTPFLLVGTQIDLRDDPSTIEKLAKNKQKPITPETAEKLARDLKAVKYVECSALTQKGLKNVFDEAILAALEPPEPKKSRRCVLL
Sequence of Cy3-labelled, prenylated Cdc42 Q61L, GTP-bound (Cy3 at the N-terminus (Cy3 N-t labeled LPETGG peptide joined by sortase); geranylgeranyl by in vitro prenylation (C-terminal prenyl moiety); GTP-bound) (chain, as listed by the source Q61L): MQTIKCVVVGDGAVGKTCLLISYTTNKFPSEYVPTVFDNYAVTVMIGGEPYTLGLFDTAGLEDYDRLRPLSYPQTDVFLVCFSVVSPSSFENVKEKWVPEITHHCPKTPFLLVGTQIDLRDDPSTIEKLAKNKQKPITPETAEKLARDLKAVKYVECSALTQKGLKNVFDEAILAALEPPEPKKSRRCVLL
Sequence of Cy3-labelled, prenylated Rho G14V, GTPγS-bound (Cy3 at the N-terminus (Cy3 N-t labeled LPETGG peptide joined by sortase); geranylgeranyl by in vitro prenylation (C-terminal prenyl moiety); GTPγS-bound) (chain, as listed by the source G14V): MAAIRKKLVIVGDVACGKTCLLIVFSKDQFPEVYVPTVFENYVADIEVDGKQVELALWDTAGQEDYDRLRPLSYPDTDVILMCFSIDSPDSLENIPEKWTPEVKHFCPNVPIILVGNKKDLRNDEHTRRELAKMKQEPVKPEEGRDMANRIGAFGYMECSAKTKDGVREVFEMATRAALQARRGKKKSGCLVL
Sequence of Cy3-labelled, prenylated Rho Q63L, GTP-bound (Cy3 at the N-terminus (Cy3 N-t labeled LPETGG peptide joined by sortase); geranylgeranyl by in vitro prenylation (C-terminal prenyl moiety); GTP-bound) (chain, as listed by the source Q63L): as the sequence (chain, as listed by the source G14V) above, with V14G, Q63L counted along it
Sequence of Cy3-labelled, prenylated Cdc42 G12V, GTPγS-bound (Cy3 at the N-terminus (Cy3 N-t labeled LPETGG peptide joined by sortase); geranylgeranyl by in vitro prenylation (C-terminal prenyl moiety); GTPγS-bound) (chain, as listed by the source G12V): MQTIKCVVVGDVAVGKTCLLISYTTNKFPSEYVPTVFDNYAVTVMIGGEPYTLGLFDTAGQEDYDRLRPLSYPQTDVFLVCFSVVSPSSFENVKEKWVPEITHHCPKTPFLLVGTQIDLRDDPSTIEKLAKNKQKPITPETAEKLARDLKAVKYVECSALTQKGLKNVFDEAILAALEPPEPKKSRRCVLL

B1: Xenopus laevis RhoGDI, wild type (natural protein)
chain: MAEHEPTPEQLHQIAAENQDEEHSVDYKPPAQKSIKEIQELDQDDESLRKYKEALLGSLPSSADPEASNVVVTKLTLLCDCAPGPLELDLTGDLEKFKKQSFTLKEGVEYRIKISFKVNKEIVSGLRYQQQTYRKGVRLDRTRYMVGSYGPRVDEYEFLTPIEEAPNGMLARGCYNIKSLFTDDDKSNHLSWEWNLHIKNDWKS
Kd [1]: 19.6 µM | Kd [2]: 14.4 µM | Kd [3]: 5.43 µM | Kd [4]: 4.95 µM | Kd [5]: 3.41 µM | Kd [6]: 5.77 µM
